From PMC5314765

T1: Abf2p (mature) (Saccharomyces cerevisiae, UniProt Q02486 27-183)
T1 sequence: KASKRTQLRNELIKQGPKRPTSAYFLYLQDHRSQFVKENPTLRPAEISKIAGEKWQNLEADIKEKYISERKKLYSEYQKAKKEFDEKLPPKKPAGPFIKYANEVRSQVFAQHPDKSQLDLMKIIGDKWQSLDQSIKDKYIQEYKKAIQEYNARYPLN

B1: Af2_22 5-BrU6 (dsDNA)
DNA 1: AATAATAAATTATATAATATAA
DNA 2: TTATATTATATAATTTATTATT
modifications: T6 replaced by 5-bromouracil
B2: GC_22 (dsDNA)
DNA 1: GAAGATATCCGGGTCCCAATAA
DNA 2: TTATTGGGACCCGGATATCTTC

How the values were obtained:
Abf2p (mature) [1] = target: T1, Abf2p (mature); test: X-ray crystallography
Abf2p (mature) [2] = target: T1, Abf2p (mature); test: ITC

| Binder | binding result (Abf2p (mature) [1]) | binding result (Abf2p (mature) [2]) |
| --- | --- | --- |
| B1 | binds |  |
| B2 |  | binds |
